Measurements: article PMC5737863, “Entirely enzymatic nanofabrication of DNA–protein conjugates”

Columns and labels:
HER2 = HER2 (UniProt P04626 23-652); test: bead pull-down, GFP fluorescence; aptamer conjugated to mVirD2-GFP; PBS, room temperature; Conjugation/EMSA: TKM buffer (50 mM Tris-HCl pH 8, 150 mM KCl, 1 mM MgCl2, 10% glycerol), 37 C, 1 h, 10% native PAGE; HER2 beads: PBS, room temperature, 15 min; settings: protein: commercial; tags: Fc; label: GFP (via conjugated protein)
mVirD2-GFP = target: T1, mVirD2-GFP (Agrobacterium tumefaciens (from …, UniProt P06668 1-204)); test: denaturing PAGE shift; covalent conjugate; Conjugation/EMSA: TKM buffer (50 mM Tris-HCl pH 8, 150 mM KCl, 1 mM MgCl2, 10% glycerol), 37 C, 1 h, 10% native PAGE; HER2 beads: PBS, room temperature, 15 min; settings: protein: recombinant; tags: N-terminal 6xHis
T1 sequence: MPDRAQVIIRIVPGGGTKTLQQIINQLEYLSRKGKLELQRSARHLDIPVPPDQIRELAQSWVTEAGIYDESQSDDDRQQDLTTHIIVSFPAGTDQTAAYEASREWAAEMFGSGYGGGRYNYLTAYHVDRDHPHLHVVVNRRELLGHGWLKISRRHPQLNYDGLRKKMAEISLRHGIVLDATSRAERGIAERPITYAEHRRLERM

mVirD2 [1] = target: T2, mVirD2 (Agrobacterium tumefaciens (from …, UniProt P06668 1-204)); test: denaturing PAGE and SDS-PAGE shift; covalent conjugate; Conjugation/EMSA: TKM buffer (50 mM Tris-HCl pH 8, 150 mM KCl, 1 mM MgCl2, 10% glycerol), 37 C, 1 h, 10% native PAGE; HER2 beads: PBS, room temperature, 15 min; settings: protein: recombinant; tags: N-terminal 6xHis
T2 sequence: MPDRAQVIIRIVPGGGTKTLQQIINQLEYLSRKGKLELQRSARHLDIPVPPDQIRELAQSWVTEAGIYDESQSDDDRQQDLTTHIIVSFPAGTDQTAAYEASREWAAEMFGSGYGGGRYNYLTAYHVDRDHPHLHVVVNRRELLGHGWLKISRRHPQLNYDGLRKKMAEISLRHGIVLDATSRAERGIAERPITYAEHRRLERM

mVirD2 [2] = target: T2, mVirD2; test: EMSA; apparent Kd; 1 mM Mg2+; covalent conjugation; Conjugation/EMSA: TKM buffer (50 mM Tris-HCl pH 8, 150 mM KCl, 1 mM MgCl2, 10% glycerol), 37 C, 1 h, 10% native PAGE; HER2 beads: PBS, room temperature, 15 min; settings: protein: recombinant; tags: N-terminal 6xHis; label: 3' Cy3
mVirD2 [3] = target: T2, mVirD2; test: EMSA; non-covalent; no nicking; Conjugation/EMSA: TKM buffer (50 mM Tris-HCl pH 8, 150 mM KCl, 1 mM MgCl2, 10% glycerol), 37 C, 1 h, 10% native PAGE; HER2 beads: PBS, room temperature, 15 min; settings: protein: recombinant; tags: N-terminal 6xHis; single-stranded
mVirD2 [4] = target: T2, mVirD2; test: EMSA; 1 mM Mg2+; higher conjugate yield than T1; Conjugation/EMSA: TKM buffer (50 mM Tris-HCl pH 8, 150 mM KCl, 1 mM MgCl2, 10% glycerol), 37 C, 1 h, 10% native PAGE; HER2 beads: PBS, room temperature, 15 min; settings: protein: recombinant; tags: N-terminal 6xHis; label: 3' Cy3

B1: HeA2_3 aptamer, nicked and conjugated to mVirD2-GFP (ssDNA)
DNA: CCAGTCAGTAGGGAAGAGAAGGACATATGATTCTAAAAGGATTCTTCCCAAGGGGATCCAATTCAAACAGC
modifications: 5' end covalently linked to mVirD2-GFP Tyr29
HER2
  binding result: binds

B2: MOSIC HeA2_3 with mVirD2 site (ssDNA)
DNA: GCTCAAATTACAACGGTATATATCCTGCCAGTCAGTAGGGAAGAGAAGGACATATGATTCTAAAAGGATTCTTCCCAAGGGGATCCAATTCAAACAGC
mVirD2-GFP
  binding result: binds
mVirD2 [1]
  binding result: binds

## GCTCAAATTACAACGGTATATATCCTGCCAGTCAG (ssDNA) [T1 (VirTarget)]
mVirD2 [2]
  Kd: 468 ± 68 nM

B3: ss Cut site RNA (mixed)
DNA: GCTCAAATTACAACGGTATATATCCTGCCAGTCAG
modifications: DNA-RNA chimera; AT-rich binding sequence is DNA, cut site is RNA (bold lost in text)
mVirD2 [3]
  binding result: binds

## GCTCAAATTACAACGGTATATATCCTGCCAGTCAG (XNA, phosphorothioate bonds at underlined bases (underline lost in text)) [PS-T1VirTarget]
mVirD2 [4]
  binding result: binds
